Molecular target: T1, MHCII (I-A^b) of murine bone marrow-derived dendritic cells (Mus musculus, UniProt P14434+P14483)
T1 construct: immunoprecipitation of mature peptide-MHCII complexes with monoclonal Y3P antibody; endogenous in cells; host or cells: primary BMDCs from C57/BL6 (WT) mice, exposed to live L. monocytogenes EGDe
T1 sequence (P14434 24-256): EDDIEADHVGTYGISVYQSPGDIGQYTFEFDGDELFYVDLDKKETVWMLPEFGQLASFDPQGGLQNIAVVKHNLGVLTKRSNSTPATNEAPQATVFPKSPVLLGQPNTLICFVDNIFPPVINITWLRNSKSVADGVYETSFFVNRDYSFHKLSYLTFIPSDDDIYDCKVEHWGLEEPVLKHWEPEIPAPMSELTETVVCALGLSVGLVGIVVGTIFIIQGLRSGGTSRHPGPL
T1 sequence (P14483 28-265): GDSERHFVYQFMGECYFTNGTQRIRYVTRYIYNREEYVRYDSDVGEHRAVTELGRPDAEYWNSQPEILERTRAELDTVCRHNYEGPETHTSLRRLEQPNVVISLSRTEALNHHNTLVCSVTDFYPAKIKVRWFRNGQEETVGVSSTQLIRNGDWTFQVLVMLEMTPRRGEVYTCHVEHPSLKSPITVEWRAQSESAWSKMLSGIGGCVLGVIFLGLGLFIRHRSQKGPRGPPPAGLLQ
Test: MHCII peptidomics of BMDCs exposed to live Listeria (iTRAQ LC-MS/MS of MHCII-associated peptides)
Assay type: cell-based
Settings: Listeria peptide found by MHCII peptidomics that matches the BOTA prediction
Source text: To validate BOTA, Applicants tested its performance in predicting MHCII-restricted epitopes from Listeria monocytogenes, one of the most common foodborne pathogens associated with a relatively high mortality rate (Scallan et al., 2011). Despite the epidemiological impact of listeriosis, the number of experimentally validated CD4 T cell epitopes encoded within the Listeria genome is limited. Thus, Applicants first sought to identify MHCII-associated peptides in BMDCs exposed to live Listeria by peptidomics. In these experiments, primary BMDCs were exposed to live L. monocytogenes for 10 minutes or 6 hours prior to immunoprecipitation of mature peptide-MHCII complexes with monoclonal Y3P antibody (Janeway et al., 1984). Associated peptides from biological replicates of the 10-minute and 6-hour timepoints were analyzed using mass spectrometry (LC-MS/MS) (FIGS. 9A and B).
Immuno-affinity purification of MHCII complexes. Bone marrow was harvested from C57/BL6 (WT), Atg16l1^f/f×CD11c-Cre (Conway et al., 2013b), and Atg5^f/f×CD11c-Cre (Conway et al., 2013a) mice. BMDCs were differentiated from bone marrow for seven days in antibiotic-free DMEM supplemented with 20% FBS and GM-CSF (2% conditioned TOPO medium). In parallel, L. monocytogenes strain EGDe (ATCC BA-679) was cultured overnight in BHI medium, washed in PBS, and cocultured with BMDCs at an MOI of approximately 100:1 for 30 minutes. Tissue culture dishes containing cocultures were washed in PBS and cultured for an additional 10 minutes or 6 hours in DC media containing gentamicin (30 μg/ml). BMDCs were then harvested by scraping, washed in PBS, and lysed in 1% NP-40, 4 mM MgCl2, 6 μg/ml DNaseI from bovine pancreas (Sigma Aldrich), and PBS pH 7.4 at 250×10^6 cells/4 ml lysis buffer/sample. Clarified lysates were subjected to immunoprecipitation overnight at 4° C. with gentle rotation. Immunoprecipitation was performed with NHS Mag Sepharose (GE Healthcare) covalently coupled to anti-H2-IA (clone Y3P (Janeway et al., 1984)). Each sample contained 130 μl packed beads and approximately 650 μg antibody. Beads were then washed twice in PBS containing 0.1% NP-40 and three times in PBS.
MHC-peptide elution and desalting. Peptides were eluted from MHC complexes and desalted on in-house-built Empore C18 StageTips (3M, 2315) as described previously (Rappsilber et al., 2007). Sample loading, washes, and elution were performed on a tabletop centrifuge at a maximum speed of 2,000-3,500×g. Briefly, StageTips were equilibrated with 2×100 μL washes of methanol, 2×50 μL washes of 50% acetonitrile/0.1% formic acid (FA), and 2×100 μL washes of 1% FA. In a tube, the dried beads from MHC-associated peptide IPs were thawed at 4° C., reconstituted in 50 μL 3% ACN/5% FA, and loaded onto StageTips. The beads were washed with 50 μL 1% FA, and peptides were further eluted using two rounds of 5-minute incubations in 10% acetic acid. The combined wash and elution volumes were combined and loaded onto StageTips. The tubes containing the IP beads were washed again with 50 μL 1% FA, and this volume was also loaded onto StageTips. Peptides were washed twice on the StageTip with 100 μL 1% FA. Peptides were eluted using a step gradient of 20 μL 20% ACN/0.1% FA, 20 μL 40% ACN/0.1% FA, and 20 μL 60% ACN/0.1% FA. Step elutions were combined and dried to completion.
iTRAQ 4-plex labeling for quantitative proteomics.

Substance | Peptidomics Hit
15028 (ERWNEKYAQAYPNVSAKID; Listeria sp) [compound 15028] | ..........[…]..........
15029 (ETQHYYGLPVADSAIDRGPL; Listeria sp) [compound 15029] | ...APGQETQHYYGLPVADSAIDR.........
15030 (FRYVFDTAKATAASSYPGS; Listeria sp) [compound 15030] | ......ADFRYVFDTAKATAASSYPG.......
15031 (DTTVKFTLPTVAPAFENTIKT; Listeria sp) [compound 15031] | AVDDTTVKFTLPTVAPAFENT
15032 (EKVVATPVSNVSTSSATSS; Listeria sp) [compound 15032] | GTKEKVVATPVSNVSTSSA
15033 (INQAYTGSTALSDGLNKM; Listeria sp) [compound 15033] | GGINQAYTGSTALSDGLN
15034 (GIAVTAFAAPTIASASTVVV; Listeria sp) [compound 15034] | IAVTAFAAPTIASA
15036 (TVRAKSKTYPVYINEFALED; Listeria sp) [compound 15036] | TVRAKSKTYPVYInEFALE

Same assay, conditions: MHCII-bound peptide abundance, BMDCs, 6 hr versus 10 min after Listeria exposure

Substance | logFC (Log2 Fold Change Listeria 6 hr versus 10 min)
14980 (WNEKYAQAYPNVS; Listeria sp) [compound 14980] | 1.377
14981 (WNEKYAQAYPNVSAKI; Listeria sp) [compound 14981] | 1.202
14982 (VERWNEKYAQAYPNVS; Listeria sp) [compound 14982] | 0.2849
14983 (ERWNEKYAQAYPNVS; Listeria sp) [compound 14983] | 0.2069
14985 (VWTKPNKIEGAQKISALSTY; Listeria sp) [compound 14985] | -0.2625
14995 (EVEDLNQPLAAHVNYE; Listeria sp) [compound 14995] | 0.1526
15016 (SNVNHVLDIGYGGGSNVKN; Listeria sp) [compound 15016] | 0.227
15017 (EVVYHNMKQDLE; Listeria sp) [compound 15017] | -0.1708
15018 (DGLKAGEHFFAAGKDWPDAIYANGDEVAAGVMYH; Listeria sp) [compound 15018] | -0.4271
15019 (EILLQKPNGERLTSFITL; Listeria sp) [compound 15019] | -0.04842
15020 (GLLMAKKYKMNLTIVIVN; Listeria sp) [compound 15020] | -0.6291
15022 (MNRVMLPLQQMGAKMHGK; Listeria sp) [compound 15022] | 0.1447
15023 (VMASDYTRGLSIRAIELVFENL; Listeria sp) [compound 15023] | 0.2507
15024 (YMEKHSVSRLVGAPP; Listeria sp) [compound 15024] | -0.4422
15025 (KTASGIVLPDSAKEKPQSGKIVAVGSGRVLD; Listeria sp) [compound 15025] | -0.4963
15026 (ESVYLSAQKENPRLFAKIETF; Listeria sp) [compound 15026] | 0.5951
15027 (RDNYLFQLYEATGTPIHPMSPF; Listeria sp) [compound 15027] | -0.05049

Tested on: CD4 T cells
Test: IFNγ ELISPOT of splenocytes from Listeria-infected mice restimulated with synthetic peptides
Assay type: in vivo, mouse
Settings: seven days after i.p. Listeria infection; splenocytes restimulated with 100 nM peptide
Source text: FIG. 10—BOTA and MHCII peptidomics accurately predict immunodominance in vivo. […] At day 7, splenocytes were harvested and restimulated with the indicated peptides for quantification of the T cell response by IFNγ ELISPOT. Data represent the mean number of spots per 1×10^5 CD4 T cells±sd for n=6 mice.
Given that MHCII peptidomics and BOTA successfully identified Listeria peptides and features associated with efficient antigen presentation, Applicants sought to measure T cell responses to these epitopes in vivo. To quantify the CD4 T cell response directed to the top eight candidate Listeria epitopes, mice were sacrificed seven days after intraperitoneal (i.p.) infection with Listeria. T cells were restimulated in vitro with synthetic peptides, and IFN-γ responses were enumerated by ELISPOT. […] The remaining four epitopes elicited weaker responses near the limit of detection for ELISPOT (FIG. 10B).
Listeria infection and ELISPOT. L. monocytogenes strain EGDe (ATCC BA-679) was grown to log phase in BHI, washed in PBS, and used to inoculate mice by i.p. injection with a dose of 1×10^4 CFU/200 μl/mouse. Seven days after infection, spleens were harvested, red blood cells were lysed, and single cell suspensions were replated at 2.5×10^5/200 μl/well on 96-well ELISPOT plates (Millipore MAIPS4510) precoated with anti-IFNγ (BD Pharmingen 551881) at a concentration of 5 μg/ml in PBS. Peptides were added at a concentration of 100 nM to restimulate splenocytes overnight. After stimulation, plates were washed, blocked, and incubated with biotinylated anti-IFNγ (BD Pharmingen 551881) at a concentration of 2 μg/ml and streptavidin-AKP (BD Pharmingen 554065) at a dilution of 1:1000. After 60 minutes, plates were washed and developed with 3-amino-9-ethylcarbazole (AEC, Sigma-Aldrich, A6926). IFNγ-secreting cells were scanned and enumerated using an Immunospot Analyzer ELISpot reader (CTL). All samples were run in triplicate. The following peptides were synthesized by New England Peptide: lmo2185_293-312 […] (SEQ ID NO: 14986), lmo0202_189-204 […] (SEQ ID NO: 14981), lmo0135_150-169 […] (SEQ ID NO: 14997), lmo2558_533-553 […] (SEQ ID NO: 14984), lmo2360_289-306 […] (SEQ ID NO: 15009), lmo0186_285-303 […] (SEQ ID NO: 15005), lmo0582a_26-46 […] (SEQ ID NO: 15012), lmo0582b_12-25 […] (SEQ ID NO: 15013). To calculate the frequency of CD4^+ cells in each splenocyte sample from infected mice, an aliquot of cells from each mouse was stained for flow cytometric analysis. 1×10^6 cells were incubated with 2.4G2 Mouse Fc block in PBS/FBS (BD Pharmingen, 553142) for 20 min at 4° C. […] Fluorescently labeled cells were acquired on the FACSVerse flow cytometer (BD Biosciences) and analyzed using FlowJo Analysis Software (Tree Star).

Substance | T cell response (IFN-γ ELISPOT)
ADFRYVFDTAKATAASSYPG (Listeria sp) [SEQ ID NO: 14986, Listeria peptide from lmo2185] | Robust responses
APGQETQHYYGLPVADSAIDR (Listeria sp) [SEQ ID NO: 14984, Listeria peptide from lmo2558 (ami)] | Robust responses
VDDTTVKFTLPTVAPAFENT (Listeria sp) [SEQ ID NO: 14997, Listeria peptide from lmo0135] | Robust responses
WNEKYAQAYPNVSAKI (Listeria sp) [SEQ ID NO: 14981, Listeria peptide from lmo0202 (hly) (LLO)] | Robust responses

Tested on: ovarian carcinoma patients
Test: not given
Settings: poly-ICLC in combination with a NY-ESO-1 peptide vaccine (in addition to Montanide), phase 1; cited from earlier work

Substance | patients showing induction of CD4+ and CD8+ T cell, as well as antibody responses to the peptide
Polyinosinic-Polycytidylic Acid-poly-L-lysine Carboxymethylcellulose [poly-ICLC] | > 90%

Source: patent publication US12374423B2, “Systems and methods for MHC class II epitope prediction” (priority 2017, dated 2025)
